Molecular target: recombinant PRMT5/MEP50 complex (human) (UniProt O14744)
Assay: SEC; PRMT5/MEP50 and purified U7 6S combined (molar ratio 4:8 or 4:2) in 20 mM Hepes pH 7.7, 100 mM NaCl, 2 mM DTT, 1 h on ice; Superose 6

Chain of recombinant PRMT5/MEP50 complex (human) (O14744 whole entry, chain 1 of 2): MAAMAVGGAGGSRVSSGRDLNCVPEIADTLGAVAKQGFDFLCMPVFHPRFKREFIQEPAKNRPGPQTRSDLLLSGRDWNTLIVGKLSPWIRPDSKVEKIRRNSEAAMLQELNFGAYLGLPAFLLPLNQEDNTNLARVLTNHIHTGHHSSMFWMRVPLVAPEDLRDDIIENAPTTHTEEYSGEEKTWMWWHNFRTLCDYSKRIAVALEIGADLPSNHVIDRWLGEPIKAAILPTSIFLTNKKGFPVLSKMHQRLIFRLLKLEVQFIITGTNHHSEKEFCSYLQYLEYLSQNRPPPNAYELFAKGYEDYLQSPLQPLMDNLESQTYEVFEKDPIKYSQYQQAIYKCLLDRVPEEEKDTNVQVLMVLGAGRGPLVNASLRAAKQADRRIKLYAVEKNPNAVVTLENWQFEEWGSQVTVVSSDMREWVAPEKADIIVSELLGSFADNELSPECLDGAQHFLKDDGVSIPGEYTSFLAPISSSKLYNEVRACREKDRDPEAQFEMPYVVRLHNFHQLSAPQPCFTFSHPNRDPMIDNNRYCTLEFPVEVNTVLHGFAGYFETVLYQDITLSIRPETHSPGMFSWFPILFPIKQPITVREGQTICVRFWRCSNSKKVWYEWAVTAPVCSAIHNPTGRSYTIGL
Chain of recombinant PRMT5/MEP50 complex (human) (Q9BQA1 whole entry, chain 2 of 2, further chain): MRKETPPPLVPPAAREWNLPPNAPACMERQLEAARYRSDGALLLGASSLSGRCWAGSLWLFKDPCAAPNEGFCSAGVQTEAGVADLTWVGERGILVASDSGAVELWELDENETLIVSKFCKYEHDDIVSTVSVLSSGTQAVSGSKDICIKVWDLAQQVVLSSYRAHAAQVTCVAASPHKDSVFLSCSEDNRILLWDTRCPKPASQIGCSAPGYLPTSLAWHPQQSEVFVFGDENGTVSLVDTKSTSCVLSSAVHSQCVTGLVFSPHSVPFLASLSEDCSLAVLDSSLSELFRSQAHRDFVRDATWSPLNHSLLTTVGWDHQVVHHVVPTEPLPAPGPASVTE

“U7 6S complex (MBP-Lsm10/11ΔNL heterodimer, SmE/F/G heterotrimer and pICln) (from UniProt Q969L4 1-123; P83369 153-360; P62304 1-92; P62306 1-86; P62308 1-76; Q61189 1-236)” was tested, and the stoichiometry N (U7 6S per PRMT5/MEP50 heterooctamer) was 1.

From publication PMC10578488
